According to the supplement of paper PMC10567573:

B1: PLAGL1 (parent)
chain: DPNKMAFGCEECGKKYNTMLGYKR

Variants of: B1
Assay: protein stability index of a GFP-peptide fusion (GPS, HEK-293T) (PSI 1-6); higher = more stable
Conditions: c terminus: a fixed tail appended
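Also: lentivirally expressed fusions sorted by FACS into six bins by GFP to DsRed ratio, PSI derived from sequencing read proportions per bin multiplied by bin number.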

In order of falling protein stability index:
1. DPNKMAFGCEECGKKYNTMLGYKE [R24E]  4.57
2. DPNKMAFGCEECGKKYNTMLGYKK [R24K]  4.02
3. DPNKMAFGCEECGKKYNTMLGYKH [R24H]  3.66
4. DPNKMAFGCEECGKKYNTMLGYKD [R24D]  3.65
5. DPNKMAFGCEECGKKYNTKLGYKR [M19K]  3.55
6. DPNKMAFGCEECGKKYNTMEGYKR [L20E]  3.51
7. DPNKMAFGCEECGKKYNTMRGYKR [L20R]  3.46
8. DPNKMAFGCEECGKKYNTMLGYKQ [R24Q]  3.34
9. DPNKMAFGCEECGKKYNTMLGYKS [R24S]  3.3
10. DPNKMAFGCEECGKKYNTMLGYKN [R24N]  3.27
11. DPNKMAFGCEECGKKYNTMKGYKR [L20K]  3.26
12. DPNKMAFGCEECGKKYNAMLGYKR [T18A]  3.2
13. DPNKMAFGCEECGKKYNTALGYKR [M19A]  3.16
14. DPNKMAFGCEECGKKYNTMPGYKR [L20P]  3.11
15. DPNKMAFGCEECGKKYNTMLCYKR [G21C]  3.09
16. DPNKMAFGCEECGKKYNTMHGYKR [L20H]  3.08
17. DPNKMAFGCEECGKKYNGMLGYKR [T18G]  3.07
18. DPNKMAFGCEECGKKYKTMLGYKR [N17K]  3.06
19. DPNKMAFGCEECGKKYNQMLGYKR [T18Q]  3.04
20. DPNKMAFGCEECGKKYNTMLGYKA [R24A]  3.02
21. DPNKMAFGCEECGKKYNTMLAYKR [G21A]  3.01
22. DPNKMAFGCEECGKKYNKMLGYKR [T18K]  3.01
23. DPNKMAFGCEECGKKYNTRLGYKR [M19R]  2.99
24. DPNKMAFGCEECGKKYNTQLGYKR [M19Q]  2.94
25. DPNKMAFGCEECGKKYNTMLGYKT [R24T]  2.93
26. DPNKMAFGCEECGKKYHTMLGYKR [N17H]  2.91
27. DPNKMAFGCEECGKKYNTMLSYKR [G21S]  2.87
28. DPNKMAFGCEECGKKYNTMLGYKP [R24P]  2.87
29. DPNKMAFGCEECGKKYNTSLGYKR [M19S]  2.83
30. DPNKMAFGCEECGKKYNTMDGYKR [L20D]  2.82
31. DPNKMAFGCEECGKKYNTLLGYKR [M19L]  2.82
32. DPNKMAFGCEECGKKYNHMLGYKR [T18H]  2.81
33. DPNKMAFGCEECGKKYNTMLGYKM [R24M]  2.78
34. DPNKMAFGCEECGKKYNPMLGYKR [T18P]  2.78
35. DPNKMAFGCEECGKKYNEMLGYKR [T18E]  2.77
36. DPNKMAFGCEECGKKYNTMLGYKG [R24G]  2.74
37. DPNKMAFGCEECGKKYNTTLGYKR [M19T]  2.74
38. DPNKMAFGCEECGKKYQTMLGYKR [N17Q]  2.73
39. DPNKMAFGCEECGKKYNTMWGYKR [L20W]  2.73
40. DPNKMAFGCEECGKKYNTMMGYKR [L20M]  2.72
41. DPNKMAFGCEECGKKYNTMVGYKR [L20V]  2.7
42. DPNKMAFGCEECGKKYNTGLGYKR [M19G]  2.64
43. DPNKMAFGCEECGKKYNIMLGYKR [T18I]  2.63
44. DPNKMAFGCEECGKKYNTMLGYKY [R24Y]  2.61
45. DPNKMAFGCEECGKKYNRMLGYKR [T18R]  2.6
46. DPNKMAFGCEECGKKYNTMCGYKR [L20C]  2.59
47. DPNKMAFGCEECGKKYNTMSGYKR [L20S]  2.59
48. DPNKMAFGCEECGKKYNTMLGYKC [R24C]  2.58
49. DPNKMAFGCEECGKKYNTCLGYKR [M19C]  2.57
50. DPNKMAFGCEECGKKYNTMLNYKR [G21N]  2.55
51. DPNKMAFGCEECGKKYNTMIGYKR [L20I]  2.54
52. DPNKMAFGCEECGKKYNTMLGYKV [R24V]  2.52
53. DPNKMAFGCEECGKKYNTYLGYKR [M19Y]  2.49
54. DPNKMAFGCEECGKKYNTMGGYKR [L20G]  2.46
55. DPNKMAFGCEECGKKYITMLGYKR [N17I]  2.44
56. DPNKMAFGCEECGKKYNTMLGYKF [R24F]  2.42
57. DPNKMAFGCEECGKKYNDMLGYKR [T18D]  2.42
58. DPNKMAFGCEECGKKYNSMLGYKR [T18S]  2.39
59. DPNKMAFGCEECGKKYNTNLGYKR [M19N]  2.37
60. DPNKMAFGCEECGKKYPTMLGYKR [N17P]  2.35
61. DPNKMAFGCEECGKKYNCMLGYKR [T18C]  2.35
62. DPNKMAFGCEECGKKYNTMQGYKR [L20Q]  2.33
63. DPNKMAFGCEECGKKYNTELGYKR [M19E]  2.32
64. DPNKMAFGCEECGKKYNNMLGYKR [T18N]  2.3
65. DPNKMAFGCEECGKKYNTPLGYKR [M19P]  2.27
66. DPNKMAFGCEECGKKYNTMLIYKR [G21I]  2.26
67. DPNKMAFGCEECGKKYNTMNGYKR [L20N]  2.26
68. DPNKMAFGCEECGKKYNTILGYKR [M19I]  2.25
69. DPNKMAFGCEECGKKYNTMAGYKR [L20A]  2.23
70. DPNKMAFGCEECGKKYNTMFGYKR [L20F]  2.18
71. DPNKMAFGCEECGKKYNMMLGYKR [T18M]  2.18
72. DPNKMAFGCEECGKKYNFMLGYKR [T18F]  2.15
73. DPNKMAFGCEECGKKYNTVLGYKR [M19V]  2.14
74. DPNKMAFGCEECGKKYNTWLGYKR [M19W]  2.11
75. DPNKMAFGCEECGKKYNTMYGYKR [L20Y]  2.1
76. DPNKMAFGCEECGKKYNTMLTYKR [G21T]  2.08
77. DPNKMAFGCEECGKKYNTMLMYKR [G21M]  2.06
78. DPNKMAFGCEECGKKYNTMLGYKL [R24L]  2.05
79. DPNKMAFGCEECGKKYNTMLGYKI [R24I]  2.05
80. DPNKMAFGCEECGKKYRTMLGYKR [N17R]  2.02
81. DPNKMAFGCEECGKKYTTMLGYKR [N17T]  1.99
82. DPNKMAFGCEECGKKYLTMLGYKR [N17L]  1.91
83. DPNKMAFGCEECGKKYNTFLGYKR [M19F]  1.9
84. DPNKMAFGCEECGKKYNYMLGYKR [T18Y]  1.87
85. DPNKMAFGCEECGKKYNTMLGYKW [R24W]  1.86
86. DPNKMAFGCEECGKKYNTMLFYKR [G21F]  1.85
87. DPNKMAFGCEECGKKYNLMLGYKR [T18L]  1.85
88. DPNKMAFGCEECGKKYNTMLVYKR [G21V]  1.81
89. DPNKMAFGCEECGKKYVTMLGYKR [N17V]  1.78
90. DPNKMAFGCEECGKKYWTMLGYKR [N17W]  1.76
91. DPNKMAFGCEECGKKYMTMLGYKR [N17M]  1.75
92. DPNKMAFGCEECGKKYSTMLGYKR [N17S]  1.66
93. DPNKMAFGCEECGKKYNVMLGYKR [T18V]  1.42
94. DPNKMAFGCEECGKKYNTHLGYKR [M19H]  1.32
